One block for each molecule: values may come before it.
Legend:
[1] = target: BRAVO-mV (BRASSINOSTEROIDS AT VASCULAR AND ORGANIZING CENTRE fused to mVenus) (Arabidopsis thaliana) (UniProt Q6R053); experiment: FRET or BRET
[2] = target: WOX5-mV(N)/PLT3-mV(C) heterodimer (split mVenus donor) (Arabidopsis thaliana) (UniProt Q8H1D2); experiment: split reporter
[3] = target: T1, BRAVO-mV(N)/PLT3-mV(C) heterodimer (split mVenus donor) (Arabidopsis thaliana, UniProt Q6R053 1-323; Q52QU2 1-581); experiment: split reporter
T1 sequence (looked up) 1: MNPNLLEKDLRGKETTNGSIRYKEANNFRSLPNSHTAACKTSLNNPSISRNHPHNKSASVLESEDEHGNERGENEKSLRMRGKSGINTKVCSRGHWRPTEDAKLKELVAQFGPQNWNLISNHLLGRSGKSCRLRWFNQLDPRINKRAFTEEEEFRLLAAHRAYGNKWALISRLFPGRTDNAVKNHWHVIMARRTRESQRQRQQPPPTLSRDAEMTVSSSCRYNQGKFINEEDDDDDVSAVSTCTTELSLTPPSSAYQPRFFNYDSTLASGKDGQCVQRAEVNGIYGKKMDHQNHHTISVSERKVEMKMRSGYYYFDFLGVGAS
T1 sequence (looked up) 2: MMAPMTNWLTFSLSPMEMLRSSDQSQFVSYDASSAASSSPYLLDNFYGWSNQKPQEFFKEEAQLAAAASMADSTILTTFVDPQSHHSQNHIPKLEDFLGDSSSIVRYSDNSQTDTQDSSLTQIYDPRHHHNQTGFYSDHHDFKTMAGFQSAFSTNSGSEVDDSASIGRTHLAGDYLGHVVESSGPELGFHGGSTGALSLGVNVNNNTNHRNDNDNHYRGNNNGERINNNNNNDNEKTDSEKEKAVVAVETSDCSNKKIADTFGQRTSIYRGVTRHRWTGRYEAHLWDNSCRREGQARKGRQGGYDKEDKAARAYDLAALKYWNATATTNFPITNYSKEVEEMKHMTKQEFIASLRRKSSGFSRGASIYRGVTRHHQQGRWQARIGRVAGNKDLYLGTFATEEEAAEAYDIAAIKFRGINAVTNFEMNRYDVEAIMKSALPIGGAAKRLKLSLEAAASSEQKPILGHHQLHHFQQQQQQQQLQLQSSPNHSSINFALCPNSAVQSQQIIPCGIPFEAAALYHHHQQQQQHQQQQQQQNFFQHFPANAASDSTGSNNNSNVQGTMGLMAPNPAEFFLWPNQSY

[4] = target: T2, BRAVO-mV (BRASSINOSTEROIDS AT VASCULAR AND ORGANIZING CENTRE fused to mVenus) (Arabidopsis thaliana, UniProt Q6R053 1-323); experiment: FRET or BRET
T2 sequence (looked up): T1 sequence (looked up) 1

[5] = target: T3, WOX5-mV(N)/PLT3-mV(C) heterodimer (split mVenus donor) (Arabidopsis thaliana, UniProt Q8H1D2 1-182; Q52QU2 1-581); experiment: split reporter
T3 sequence (looked up) 1: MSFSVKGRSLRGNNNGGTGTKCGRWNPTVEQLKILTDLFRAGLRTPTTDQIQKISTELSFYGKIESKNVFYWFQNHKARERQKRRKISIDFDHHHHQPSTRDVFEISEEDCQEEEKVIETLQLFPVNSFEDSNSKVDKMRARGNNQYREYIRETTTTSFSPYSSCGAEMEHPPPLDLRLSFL
T3 sequence (looked up) 2: T1 sequence (looked up) 2

[6] = target: BES1D-mV (BES1D fused to mVenus) (Arabidopsis thaliana) (UniProt Q9LN63); experiment: FRET or BRET
BES1D-mV (BES1D fused to mVenus) (Arabidopsis thaliana), sequence (Q9LN63 whole entry, the tested form may be a part): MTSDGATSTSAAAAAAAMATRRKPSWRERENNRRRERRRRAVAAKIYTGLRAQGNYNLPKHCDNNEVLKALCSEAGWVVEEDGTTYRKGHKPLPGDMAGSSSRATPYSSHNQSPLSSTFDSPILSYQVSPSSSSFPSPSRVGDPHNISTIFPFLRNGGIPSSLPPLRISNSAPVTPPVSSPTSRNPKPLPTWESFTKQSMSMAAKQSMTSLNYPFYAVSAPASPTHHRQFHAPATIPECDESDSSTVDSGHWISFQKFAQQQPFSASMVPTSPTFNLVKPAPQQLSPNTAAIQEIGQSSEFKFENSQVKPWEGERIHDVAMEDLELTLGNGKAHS

[7] = target: T4, TPL-mV (TOPLESS fused to mVenus) (Arabidopsis thaliana, UniProt Q94AI7 1-1131); experiment: FRET or BRET
T4 sequence (looked up): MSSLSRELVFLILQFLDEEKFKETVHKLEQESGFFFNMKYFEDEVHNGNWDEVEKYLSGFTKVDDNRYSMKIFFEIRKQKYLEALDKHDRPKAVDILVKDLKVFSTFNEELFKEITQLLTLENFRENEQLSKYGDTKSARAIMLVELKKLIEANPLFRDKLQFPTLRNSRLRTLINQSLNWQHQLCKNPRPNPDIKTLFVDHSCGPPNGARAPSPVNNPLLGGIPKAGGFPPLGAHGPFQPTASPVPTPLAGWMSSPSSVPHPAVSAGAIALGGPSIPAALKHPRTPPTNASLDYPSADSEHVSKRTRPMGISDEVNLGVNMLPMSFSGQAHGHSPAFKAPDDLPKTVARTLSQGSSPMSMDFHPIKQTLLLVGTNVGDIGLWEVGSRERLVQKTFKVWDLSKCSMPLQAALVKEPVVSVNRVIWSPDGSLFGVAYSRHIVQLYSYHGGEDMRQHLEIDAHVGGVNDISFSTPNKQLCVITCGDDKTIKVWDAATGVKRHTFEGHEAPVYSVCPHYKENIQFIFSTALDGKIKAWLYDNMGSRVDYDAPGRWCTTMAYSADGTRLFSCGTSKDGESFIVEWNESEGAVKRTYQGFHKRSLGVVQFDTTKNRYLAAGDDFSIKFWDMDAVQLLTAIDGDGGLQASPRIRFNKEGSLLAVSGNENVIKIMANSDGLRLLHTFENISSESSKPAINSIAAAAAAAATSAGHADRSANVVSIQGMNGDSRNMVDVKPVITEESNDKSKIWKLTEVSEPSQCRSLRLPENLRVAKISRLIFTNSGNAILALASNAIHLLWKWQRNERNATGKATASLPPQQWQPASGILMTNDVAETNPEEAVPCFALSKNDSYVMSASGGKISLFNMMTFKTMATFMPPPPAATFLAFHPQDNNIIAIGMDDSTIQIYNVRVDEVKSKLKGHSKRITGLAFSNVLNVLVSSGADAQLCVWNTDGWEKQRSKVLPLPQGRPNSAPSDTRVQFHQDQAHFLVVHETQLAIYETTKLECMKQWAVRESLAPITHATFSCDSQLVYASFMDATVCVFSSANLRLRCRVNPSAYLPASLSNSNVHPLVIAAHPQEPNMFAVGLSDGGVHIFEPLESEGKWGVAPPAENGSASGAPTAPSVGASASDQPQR

- binding [%] (FRET-FLIM) [1]: 11.7%
Molecule: PLT3ΔPrD-mCh (PLT3 with its prion-like domains deleted, fused to mCherry) (from UniProt Q9ZNS0 1-508) (natural protein)

- binding [%] (BiFC-FRET) [2]: 18.7%
- binding [%] (FRET-FLIM) [1]: 27.4%
Molecule: BES1D-mCh (BRI1-EMS-SUPPRESSOR 1, BES1D form, fused to mCherry) (from UniProt Q9LN63 1-335) (natural protein)

- binding [%] (BiFC-FRET) [3]: 29.8 ± 10.6%
- binding [%] (FRET-FLIM) [4]: 22.4 ± 14.1%
B1: WOX5-mCh (WUSCHEL-RELATED HOMEOBOX 5 fused to mCherry) (natural protein, Arabidopsis thaliana, UniProt Q8H1D2 1-182, looked up)
chain: T3 sequence (looked up) 1

- binding [%] (BiFC-FRET) [5]: 23.3 ± 8.3%
- binding [%] (BiFC-FRET) [3]: 21.1 ± 8.3%
- binding [%] (FRET-FLIM) [4]: 26.7 ± 9.8%
B2: TPL-mCh (TOPLESS fused to mCherry) (natural protein, Arabidopsis thaliana, UniProt Q94AI7 1-1131, looked up)
chain: T4 sequence (looked up)

- binding [%] (FRET-FLIM) [6]: 16.9%
- binding [%] (FRET-FLIM) [7]: 13.5 ± 4.3%
B3: PLT3-mCh (PLETHORA 3 fused to mCherry) (natural protein, Arabidopsis thaliana, UniProt Q52QU2 1-581, looked up)
chain: T1 sequence (looked up) 2

- binding [%] (BiFC-FRET) [5]: 36.3 ± 10.7%
B4: BRAVO-mCh (BRAVO fused to mCherry) (natural protein, Arabidopsis thaliana, UniProt Q6R053 1-323, looked up)
chain: T1 sequence (looked up) 1

Source: paper doi:10.1101/2024.04.26.591257 (bioRxiv, 2024)
